What was measured:
[1] = biological target: GST-OGG1 G245A (human, UniProt O15527 1-345, G245A); test: EMSA
[2] = biological target: OGG1 WT (untagged) (human, UniProt O15527 1-345); test: EMSA
OGG1 WT (untagged), sequence (O15527 whole entry): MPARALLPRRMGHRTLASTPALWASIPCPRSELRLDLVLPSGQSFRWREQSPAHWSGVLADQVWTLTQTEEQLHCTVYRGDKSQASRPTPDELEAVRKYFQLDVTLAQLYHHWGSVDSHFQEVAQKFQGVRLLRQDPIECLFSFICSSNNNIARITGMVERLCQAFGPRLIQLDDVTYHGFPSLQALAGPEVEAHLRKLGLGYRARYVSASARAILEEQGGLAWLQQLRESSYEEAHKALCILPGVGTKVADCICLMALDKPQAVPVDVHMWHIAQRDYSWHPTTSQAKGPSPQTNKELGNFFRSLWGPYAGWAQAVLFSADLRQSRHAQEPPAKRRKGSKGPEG

GST-OGG1 G245A, sequence (O15527 whole entry G245A): as the sequence (O15527 whole entry) above, with G245A counted along it

Binder	binding result [1]	binding result [2]
Cy5 34-mer 8-oxoG:C (dsDNA, 8-oxoG at position 16 of strand 1) DNA 1: GGCTTCATCGTTGTCGCAGACCTGGTGGATACCG DNA 2: CGGTATCCACCAGGTCTGCGACAACGATGAAGCC	no binding	–
32P 24-mer 8-oxoG:C (dsDNA, 8-oxoG at position 13 of strand 1) DNA 1: CTGATCGATGACGCCTGACATGAT DNA 2: ATCATGTCAGGCGTCATCGATCAG	–	binds

Source: article doi:10.1101/2022.11.04.515179
